Data taken from PMC9881875 (bioRxiv, 2023).

Tests used:
Experiment in all cases: fluorescence polarisation
SNX27 PDZ = SNX27 PDZ (UniProt Q96L92 41-135)
DLG1 PDZ1 = DLG1 PDZ1 (UniProt Q12959 220-317)
MAGI1 PDZ2 = MAGI1 PDZ2 (UniProt Q96QZ7 471-554)
NHERF2 PDZ2 = NHERF2 PDZ2 (UniProt Q15599 142-280)
Chain of NHERF2 PDZ2 (Q15599 142-280): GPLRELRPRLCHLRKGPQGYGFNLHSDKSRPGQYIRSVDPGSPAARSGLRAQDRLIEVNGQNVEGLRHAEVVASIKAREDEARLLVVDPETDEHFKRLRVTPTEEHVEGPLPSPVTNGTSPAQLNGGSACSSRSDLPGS

Chain of MAGI1 PDZ2 (Q96QZ7 471-554): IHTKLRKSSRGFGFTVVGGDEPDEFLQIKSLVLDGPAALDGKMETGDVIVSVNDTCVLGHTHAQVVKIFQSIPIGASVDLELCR
Chain of DLG1 PDZ1 (Q12959 220-317): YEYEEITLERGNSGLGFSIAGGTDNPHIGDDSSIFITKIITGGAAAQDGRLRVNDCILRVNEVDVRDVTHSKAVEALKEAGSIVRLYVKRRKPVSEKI

B1: _(SSRT)CFTR peptide (peptide)
peptide: SSRTVQDTRL
- Ki (SNX27 PDZ): 0.46 ± 0.11 µM
- Ki (DLG1 PDZ1): > 1000 µM
- IC50 (MAGI1 PDZ2): > 1000 µM
- Ki (NHERF2 PDZ2): 1.7 ± 0.4 µM
